Target: human C-C motif chemokine receptor 4 (CCR4) on tumor cell lines (human) (UniProt P51679)
Assay: cell-based or functional assay

Sequence of UniProt P51679 (P51679 whole entry): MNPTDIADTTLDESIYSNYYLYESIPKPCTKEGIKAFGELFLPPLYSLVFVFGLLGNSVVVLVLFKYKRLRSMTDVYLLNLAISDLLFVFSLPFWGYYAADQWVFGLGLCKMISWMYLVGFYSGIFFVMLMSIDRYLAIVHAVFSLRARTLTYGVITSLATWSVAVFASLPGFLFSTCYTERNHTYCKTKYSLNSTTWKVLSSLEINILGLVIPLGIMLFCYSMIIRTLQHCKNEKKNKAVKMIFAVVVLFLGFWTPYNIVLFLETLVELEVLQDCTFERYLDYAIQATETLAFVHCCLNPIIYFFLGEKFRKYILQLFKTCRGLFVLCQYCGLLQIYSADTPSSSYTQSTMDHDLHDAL

- GM-CSF fold-induction, CAR T cells co-cultured with irradiated ATL55T cells for 24 hours: 5 fold
- IFN-gamma fold-induction, CAR T cells co-cultured with irradiated ATL55T cells for 24 hours: 2 fold
- IL-4 fold-induction, CAR T cells co-cultured with irradiated ATL55T cells for 24 hours: 9 fold
- IL-5 fold-induction, CAR T cells co-cultured with irradiated ATL55T cells for 24 hours: 4 fold
- IL-8 fold-induction, CAR T cells co-cultured with irradiated ATL55T cells for 24 hours: 4 fold
- IL-13 fold-induction, CAR T cells co-cultured with irradiated ATL55T cells for 24 hours: 3 fold
- MDC fold-induction, CAR T cells co-cultured with irradiated ATL55T cells for 24 hours: 2 fold
- TNF-alpha fold-induction, CAR T cells co-cultured with irradiated ATL55T cells for 24 hours: 8 fold
- TNF-beta fold-induction, CAR T cells co-cultured with irradiated ATL55T cells for 24 hours: 5 fold
- [3H]thymidine incorporation of CAR T cells co-cultured with irradiated CCR4-bearing target cells: > 3 fold
- increase of MIP-1α level on co-culture with target cells: 36%
- increase of MP-10 (so in the source) level on co-culture with target cells: 25%
Substance: CCR4 CAR (chimeric antigen receptor with mAb2-3 scFv, CD8 hinge and transmembrane domain, 4-1BB signaling domain and CD3 zeta signaling domain), expressed on transduced human CD3+ T cells
